Experimental data as given in article PMC10681739, “High-throughput data and modeling reveal insights into the mechanisms of cooperative DNA-binding by transcription factor proteins”.

Target: T1, ETS1 (Homo sapiens, UniProt P14921)
T1 sequence: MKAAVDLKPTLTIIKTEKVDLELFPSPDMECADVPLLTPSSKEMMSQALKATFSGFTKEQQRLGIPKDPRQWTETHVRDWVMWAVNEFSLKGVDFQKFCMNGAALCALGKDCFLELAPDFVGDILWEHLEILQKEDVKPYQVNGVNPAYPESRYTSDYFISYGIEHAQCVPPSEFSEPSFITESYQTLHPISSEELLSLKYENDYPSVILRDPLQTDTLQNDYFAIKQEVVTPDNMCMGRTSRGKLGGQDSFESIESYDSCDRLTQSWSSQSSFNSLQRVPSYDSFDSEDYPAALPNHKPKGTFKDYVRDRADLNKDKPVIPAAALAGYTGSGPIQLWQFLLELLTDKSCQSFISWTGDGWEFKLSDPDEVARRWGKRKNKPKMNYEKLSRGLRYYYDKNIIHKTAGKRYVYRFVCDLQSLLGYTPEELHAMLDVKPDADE
Assay: gcPBM; 1 nM ETS1
Settings: tags: N-terminal GST (pDEST15), kept (PMC6008103); label: surface-attached array probe

B1: Table S2 B row 614 (dsDNA)
DNA 1: GAGGACTTCCGGGTGGGTGTGATATCTACGGGCCCG
DNA 2: CGGGCCCGTAGATATCACACCCACCCGGAAGTCCTC
binding signal: 17700 PBM fluorescence, median of replicate spots

B2: Table S2 B row 1799 (dsDNA)
DNA 1: AGCGGCCGAAGGAAGTGACGTTTGGGGCAGTAAGGC
DNA 2: GCCTTACTGCCCCAAACGTCACTTCCTTCGGCCGCT
binding signal: 1090 PBM fluorescence, median of replicate spots

B3: Table S2 C row 8 (dsDNA)
DNA 1: CCACCCGGGGCCTGGACCGCACCACGGTCACTGGCG
DNA 2: CGCCAGTGACCGTGGTGCGGTCCAGGCCCCGGGTGG
binding signal: 316 PBM fluorescence, median of replicate spots

B4: Table S2 B row 126 (dsDNA)
DNA 1: TGGCGCTTCCTGTCGCTACCCCAGCGGCCCAGGGCC
DNA 2: GGCCCTGGGCCGCTGGGGTAGCGACAGGAAGCGCCA
binding signal: 18100 PBM fluorescence, median of replicate spots

B5: Table S2 B row 2233 (dsDNA)
DNA 1: GCGCCATTTCCGCTGCGCAAGGCACCTCAGGCCCTG
DNA 2: CAGGGCCTGAGGTGCCTTGCGCAGCGGAAATGGCGC
binding signal: 18700 PBM fluorescence, median of replicate spots

B6: Table S2 C row 143 (dsDNA)
DNA 1: CGGCCCCGCTGAGGGGCCGCAAGGACGAGGACGCCT
DNA 2: AGGCGTCCTCGTCCTTGCGGCCCCTCAGCGGGGCCG
binding signal: 300 PBM fluorescence, median of replicate spots

B7: Table S2 B row 1484 (dsDNA)
DNA 1: CCCGGAAACTCAACTGCCCACTGCAGCGCCCGCCAT
DNA 2: ATGGCGGGCGCTGCAGTGGGCAGTTGAGTTTCCGGG
binding signal: 830 PBM fluorescence, median of replicate spots

B8: Table S2 B row 4028 (dsDNA)
DNA 1: GCCTGAAGGACTTCCGGGAACCGAAAAGCACGGTGT
DNA 2: ACACCGTGCTTTTCGGTTCCCGGAAGTCCTTCAGGC
binding signal: 19300 PBM fluorescence, median of replicate spots

B9: Table S2 C row 199 (dsDNA)
DNA 1: AGCTCAGGCACCAGCTGAGGTTTGGCATTTGCTGGC
DNA 2: GCCAGCAAATGCCAAACCTCAGCTGGTGCCTGAGCT
binding signal: 296 PBM fluorescence, median of replicate spots

B10: Table S2 C row 140 (dsDNA)
DNA 1: CCACGGCCCGGTGCCTGTGGTCCCCTCCCCGAGGGT
DNA 2: ACCCTCGGGGAGGGGACCACAGGCACCGGGCCGTGG
binding signal: 328 PBM fluorescence, median of replicate spots

B11: Table S2 C row 61 (dsDNA)
DNA 1: TGCTCTCGGCCTGGCTGTGGGCGGGTGGCCATCAGT
DNA 2: ACTGATGGCCACCCGCCCACAGCCAGGCCGAGAGCA
binding signal: 327 PBM fluorescence, median of replicate spots

B12: Table S2 C row 73 (dsDNA)
DNA 1: GTGGCACCCTCAAGGGCCACAACGGCTGGGTAACCC
DNA 2: GGGTTACCCAGCCGTTGTGGCCCTTGAGGGTGCCAC
binding signal: 312 PBM fluorescence, median of replicate spots

B13: Table S2 C row 98 (dsDNA)
DNA 1: AAAACCATCTTTAGGACCGCGGCCCCTTTAAGCGGC
DNA 2: GCCGCTTAAAGGGGCCGCGGTCCTAAAGATGGTTTT
binding signal: 284 PBM fluorescence, median of replicate spots

B14: Table S2 C row 139 (dsDNA)
DNA 1: GGAGCTGCTCCAGGCTGCGGTGGGATCAAAGCTACC
DNA 2: GGTAGCTTTGATCCCACCGCAGCCTGGAGCAGCTCC
binding signal: 316 PBM fluorescence, median of replicate spots

B15: Table S2 C row 62 (dsDNA)
DNA 1: GAGCATCTTGAGGTCTGTGGTTCAGCTACCAGCCCC
DNA 2: GGGGCTGGTAGCTGAACCACAGACCTCAAGATGCTC
binding signal: 296 PBM fluorescence, median of replicate spots

B16: Table S2 B row 2446 (dsDNA)
DNA 1: GGAACGGAGGCGGAAGGGGCCCTTCGGCGACGACGT
DNA 2: ACGTCGTCGCCGAAGGGCCCCTTCCGCCTCCGTTCC
binding signal: 869 PBM fluorescence, median of replicate spots

B17: Table S2 C row 195 (dsDNA)
DNA 1: GCTGCTGACTGCCCCTGAGGTTAGAGATTGACTAGA
DNA 2: TCTAGTCAATCTCTAACCTCAGGGGCAGTCAGCAGC
binding signal: 325 PBM fluorescence, median of replicate spots

B18: Table S2 C row 25 (dsDNA)
DNA 1: CCAGCCCGGCCTCGGACCGCGGCACCCCTCCTGGCC
DNA 2: GGCCAGGAGGGGTGCCGCGGTCCGAGGCCGGGCTGG
binding signal: 312 PBM fluorescence, median of replicate spots

B19: Table S2 C row 97 (dsDNA)
DNA 1: CGAGGGCGCGCGTCTCGCGGTCCATCCAGCTCAGCA
DNA 2: TGCTGAGCTGGATGGACCGCGAGACGCGCGCCCTCG
binding signal: 331 PBM fluorescence, median of replicate spots

B20: Table S2 C row 35 (dsDNA)
DNA 1: GTAGCTGTAACTGCCACCGCGATGCCGAAGGCGCCC
DNA 2: GGGCGCCTTCGGCATCGCGGTGGCAGTTACAGCTAC
binding signal: 324 PBM fluorescence, median of replicate spots

B21: Table S2 C row 16 (dsDNA)
DNA 1: AAAAGCCCATGGGCACCCACAGCTTTGTCACAGTGC
DNA 2: GCACTGTGACAAAGCTGTGGGTGCCCATGGGCTTTT
binding signal: 288 PBM fluorescence, median of replicate spots

B22: Table S2 B row 3361 (dsDNA)
DNA 1: GAACTACGTTTCCCGGCATGCACTGCAGGCCGCCGG
DNA 2: CCGGCGGCCTGCAGTGCATGCCGGGAAACGTAGTTC
binding signal: 787 PBM fluorescence, median of replicate spots

B23: Table S2 B row 935 (dsDNA)
DNA 1: CAGTGGCAGTAGCCGTTTGGCCCTTCCTGCCCTGGG
DNA 2: CCCAGGGCAGGAAGGGCCAAACGGCTACTGCCACTG
binding signal: 882 PBM fluorescence, median of replicate spots

B24: Table S2 C row 160 (dsDNA)
DNA 1: GCCAGCCTGGGCCGGGCCACAAGAACAAGGAATGTT
DNA 2: AACATTCCTTGTTCTTGTGGCCCGGCCCAGGCTGGC
binding signal: 322 PBM fluorescence, median of replicate spots

B25: Table S2 B row 2956 (dsDNA)
DNA 1: CTCTGAAGGAAGTGATGTTAGACGGCTGTAGGTGGT
DNA 2: ACCACCTACAGCCGTCTAACATCACTTCCTTCAGAG
binding signal: 910 PBM fluorescence, median of replicate spots

B26: Table S2 B row 3926 (dsDNA)
DNA 1: GCTGTCCGTTTCCGAGATGTTAATGCGAGGTCTTGC
DNA 2: GCAAGACCTCGCATTAACATCTCGGAAACGGACAGC
binding signal: 1060 PBM fluorescence, median of replicate spots

B27: Table S2 B row 2389 (dsDNA)
DNA 1: TCTGCACATCCGAGAAGCCTCCGTGCTTTGCTGCCA
DNA 2: TGGCAGCAAAGCACGGAGGCTTCTCGGATGTGCAGA
binding signal: 803 PBM fluorescence, median of replicate spots

B28: Table S2 B row 2750 (dsDNA)
DNA 1: CTAGTCTGTTTCCTCATCTGCCGCCTGCACGCCCGC
DNA 2: GCGGGCGTGCAGGCGGCAGATGAGGAAACAGACTAG
binding signal: 985 PBM fluorescence, median of replicate spots

B29: Table S2 B row 1617 (dsDNA)
DNA 1: ACCACCCCCAGAGACAAACTCACATCCTCTCCCTAG
DNA 2: CTAGGGAGAGGATGTGAGTTTGTCTCTGGGGGTGGT
binding signal: 1010 PBM fluorescence, median of replicate spots

B30: Table S2 C row 126 (dsDNA)
DNA 1: TCCACGCCCCGGCGCTGCGGGCACCGAGTAAAACGC
DNA 2: GCGTTTTACTCGGTGCCCGCAGCGCCGGGGCGTGGA
binding signal: 327 PBM fluorescence, median of replicate spots

B31: Table S2 C row 122 (dsDNA)
DNA 1: AGAGACAGTAGCAGCCGCGGTGACTGGCGGCCTCCT
DNA 2: AGGAGGCCGCCAGTCACCGCGGCTGCTACTGTCTCT
binding signal: 296 PBM fluorescence, median of replicate spots

B32: Table S2 B row 1447 (dsDNA)
DNA 1: GCAGAAGGAAGTGTGGCTTGGCGCCGTGGCTCACAC
DNA 2: GTGTGAGCCACGGCGCCAAGCCACACTTCCTTCTGC
binding signal: 817 PBM fluorescence, median of replicate spots

B33: Table S2 B row 1508 (dsDNA)
DNA 1: GCTCCCTTCCTGAGCCTCTGCTGGCCTCACCAGAGG
DNA 2: CCTCTGGTGAGGCCAGCAGAGGCTCAGGAAGGGAGC
binding signal: 849 PBM fluorescence, median of replicate spots

B34: Table S2 C row 106 (dsDNA)
DNA 1: ATTCACTCATCCCTCACCACAGCCAGCTGCTTGAGA
DNA 2: TCTCAAGCAGCTGGCTGTGGTGAGGGATGAGTGAAT
binding signal: 320 PBM fluorescence, median of replicate spots

B35: Table S2 B row 3245 (dsDNA)
DNA 1: GCGCCCGGAAGGAAGGCTGGGGTAGGTTGTAGTTTC
DNA 2: GAAACTACAACCTACCCCAGCCTTCCTTCCGGGCGC
binding signal: 1030 PBM fluorescence, median of replicate spots

B36: Table S2 B row 234 (dsDNA)
DNA 1: GGGGGAATGTAGGAAGTATCATCGCCTACAAGAAAG
DNA 2: CTTTCTTGTAGGCGATGATACTTCCTACATTCCCCC
binding signal: 948 PBM fluorescence, median of replicate spots

B37: Table S2 C row 53 (dsDNA)
DNA 1: CCTGGGCTGCAGGCACCCACAGTCCAGAGGCTCAAA
DNA 2: TTTGAGCCTCTGGACTGTGGGTGCCTGCAGCCCAGG
binding signal: 318 PBM fluorescence, median of replicate spots

B38: Table S2 B row 3799 (dsDNA)
DNA 1: GCAAAGATACATCCTTCTCCCCAGAGACTAAGTTTC
DNA 2: GAAACTTAGTCTCTGGGGAGAAGGATGTATCTTTGC
binding signal: 1150 PBM fluorescence, median of replicate spots

B39: Table S2 B row 1867 (dsDNA)
DNA 1: TCAGGAAGTGGTGTGACCAGCATGTGAACAGCGGCA
DNA 2: TGCCGCTGTTCACATGCTGGTCACACCACTTCCTGA
binding signal: 936 PBM fluorescence, median of replicate spots

B40: Table S2 C row 184 (dsDNA)
DNA 1: CCAGCTAAGCGAGGGGCCGCAGGGAGCGCGGCCTCG
DNA 2: CGAGGCCGCGCTCCCTGCGGCCCCTCGCTTAGCTGG
binding signal: 274 PBM fluorescence, median of replicate spots

B41: Table S2 C row 51 (dsDNA)
DNA 1: CTTGGGAGTCCCTGCCGCGGTGACTCCCTGGGAGCT
DNA 2: AGCTCCCAGGGAGTCACCGCGGCAGGGACTCCCAAG
binding signal: 261 PBM fluorescence, median of replicate spots

B42: Table S2 B row 3719 (dsDNA)
DNA 1: GACCTGGGCAGGAAGAGCGGCATTTGGGGCCCCCTG
DNA 2: CAGGGGGCCCCAAATGCCGCTCTTCCTGCCCAGGTC
binding signal: 1120 PBM fluorescence, median of replicate spots
